Data on one molecule can be found in paper doi:10.1101/2023.01.02.522444 (bioRxiv, 2023).

The target in test [1] is histone H4 (Xenopus), in the nucleosome (Xenopus, UniProt P62799 1-103). Description: cryo-EM structure.
The target of another test is Isw1 (residues 69-1129) (S. cerevisiae, UniProt P38144 69-1129). Description: cryo-EM structure.
Sequence of Isw1 (residues 69-1129) (P38144 69-1129): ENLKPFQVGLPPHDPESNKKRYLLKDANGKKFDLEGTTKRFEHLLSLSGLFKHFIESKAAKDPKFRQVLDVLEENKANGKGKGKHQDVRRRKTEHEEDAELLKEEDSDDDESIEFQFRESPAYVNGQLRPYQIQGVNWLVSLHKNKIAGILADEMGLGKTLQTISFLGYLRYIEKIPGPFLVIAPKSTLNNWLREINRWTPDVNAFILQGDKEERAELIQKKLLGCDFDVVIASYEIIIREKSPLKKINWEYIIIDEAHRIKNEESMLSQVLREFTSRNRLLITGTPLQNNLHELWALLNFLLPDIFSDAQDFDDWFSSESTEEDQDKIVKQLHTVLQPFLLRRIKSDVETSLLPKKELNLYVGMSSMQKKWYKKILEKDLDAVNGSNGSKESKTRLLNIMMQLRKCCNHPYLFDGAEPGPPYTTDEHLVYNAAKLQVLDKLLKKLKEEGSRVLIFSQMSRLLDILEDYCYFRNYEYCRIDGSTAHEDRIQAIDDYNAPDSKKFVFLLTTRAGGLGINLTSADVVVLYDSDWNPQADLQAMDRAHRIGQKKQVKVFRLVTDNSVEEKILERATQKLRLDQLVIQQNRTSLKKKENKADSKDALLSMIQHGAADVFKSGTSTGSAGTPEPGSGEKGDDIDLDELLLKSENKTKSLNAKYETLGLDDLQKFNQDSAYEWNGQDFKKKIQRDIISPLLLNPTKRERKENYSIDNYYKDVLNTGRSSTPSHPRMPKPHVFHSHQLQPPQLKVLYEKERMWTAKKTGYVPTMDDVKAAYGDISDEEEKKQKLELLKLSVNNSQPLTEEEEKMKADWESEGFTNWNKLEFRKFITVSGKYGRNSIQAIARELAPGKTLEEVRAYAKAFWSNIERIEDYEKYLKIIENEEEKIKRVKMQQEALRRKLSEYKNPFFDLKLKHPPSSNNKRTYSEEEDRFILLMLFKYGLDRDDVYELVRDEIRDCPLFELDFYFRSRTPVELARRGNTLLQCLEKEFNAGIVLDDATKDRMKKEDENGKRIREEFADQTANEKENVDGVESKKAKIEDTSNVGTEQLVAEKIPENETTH

B1: Ioc3 (residues 127-749) (domain or fragment)
chain: VAPKPKPAHEQVEPALIPSNWTSVIPLLTSDFKNQYSVISRLKNPNMKPVPYAGDIIKLMAFINKFSSFFHSDLQNLSFQDFEVGLDLYPGDPNGSAAGIVKGPEDTSLLLYPDFMAIKDIVYCQDKMNLLFLSLLDLTFTENFDGKSAKKKGPLTTWENLKSSSKKVFSNPLYRLRLVAREWGYPREWRQQLPSDQDISKPKTALFEQDEQTPVVDPSHPEILTPNIYTWNANEPLPLESNPLYNREMDKNGILALKPMDRVVLLRALTDWCASHSSAIHDEIYKLTHGKKDPVFGIQTQQVPRYTIEGVDNTINQFKKLCSLIQSRYEIRSKKKHFVKQLKEGKKPDLSRKLEILKEIKAELKNAVKSEKDELLFSLYDKWVPLFEGELPDQPLANPFSERLYKLRLQEFFLGRVPHIGDFYMPRLHSYGDSLEMSTFTDLRNLQALLSKFKNNEYNAFTLFENDGQSMSAQFKLFYHDTPSLAHDVARGRNTSGKVYWYELCHDSATLLEFLEFLDYKIVKPQDEKKEGNEKEKEALNNEAHILEQKSTTDNNPSINTNPLPKDAKYNTARKKLQILKEFLSDYYFILRQFEQMKVQFADMKPGKRQLRRIQRQTVNYNT
B1: the binding result (in test [1]; with Isw1 (residues 69-1129)) was “binds” throughout.
